Data as given in patent publication US9950027 (TXP PHARMA, dated 2018).
Like-named read-outs stand apart in the source and are kept apart here. Blank lines part the entries; values can stand above or below the binder they belong to. Side-chain parts run from the residue outwards. [ ]: non-standard residue; d: D form. Ac‑(Lys-Ac)Lys‑Lys = branched amino acid probe attached to the ε-amino group of the lysine

What was measured:
[1] = target: T1, MC4r (human recombinant, CHO cells) (human, UniProt P32245 1-332); assay: cell-based or functional assay
[2] = target: T2, MC1r (murine B16-F1 cells) (murine, UniProt Q01727 1-315); assay: cell-based or functional assay
[3] = target: T3, MC5r (human recombinant, CHO cells) (human, UniProt P33032 1-325); assay: cell-based or functional assay
[4] = target: T4, MC3r (human recombinant, CHO cells) (human, UniProt P41968 1-323); assay: displacement of 125I-NDP-αMSH, CHO cells expressing human MC3r (method of Example 2, not restated)
T4 construct: whole, on cells
Description: (§1) Murine B16-F1 cells expressing MCr1 are used for determination of binding affinity to and agonist activity against the MC1r. Human recombinant CHO cells expressing MC3r, MC4r or MC5r are used for determination of affinity to or agonist activity against the MC3r, MC4r and MC5r, respectively. […] The test items are tested in a concentration range of 10^-13 to 10^-5M.

[5] = target: T3, MC5r (human recombinant, CHO cells); assay: displacement of 125I-NDP-αMSH, CHO cells expressing human MC5r (method of Example 2, not restated)
Description: as §1

[6] = target: T1, MC4r (human recombinant, CHO cells); assay: displacement of 125I-NDP-αMSH, CHO cells expressing human MC4r (method of Example 2, not restated)
Description: as §1

[7] = target: T2, MC1r (murine B16-F1 cells); assay: displacement of 125I-NDP-αMSH, murine B16-F1 cells expressing MC1r (method of Example 2, not restated)
Description: as §1

[8] = target: T4, MC3r (human recombinant, CHO cells); assay: radioligand binding, CHO cells expressing human MC3r; affinity as a multiple of αMSH's
[9] = target: T1, MC4r (human recombinant, CHO cells); assay: radioligand binding, CHO cells expressing human MC4r; affinity as a multiple of αMSH's
[10] = target: T2, MC1r (murine B16-F1 cells); assay: radioligand binding, murine B16-F1 cells expressing MC1r; affinity as a multiple of αMSH's
human GLP-2 receptor = target: T5, human GLP-2 receptor (human, UniProt O95838 1-553); assay: cell-based or functional assay
T5 sequence (looked up): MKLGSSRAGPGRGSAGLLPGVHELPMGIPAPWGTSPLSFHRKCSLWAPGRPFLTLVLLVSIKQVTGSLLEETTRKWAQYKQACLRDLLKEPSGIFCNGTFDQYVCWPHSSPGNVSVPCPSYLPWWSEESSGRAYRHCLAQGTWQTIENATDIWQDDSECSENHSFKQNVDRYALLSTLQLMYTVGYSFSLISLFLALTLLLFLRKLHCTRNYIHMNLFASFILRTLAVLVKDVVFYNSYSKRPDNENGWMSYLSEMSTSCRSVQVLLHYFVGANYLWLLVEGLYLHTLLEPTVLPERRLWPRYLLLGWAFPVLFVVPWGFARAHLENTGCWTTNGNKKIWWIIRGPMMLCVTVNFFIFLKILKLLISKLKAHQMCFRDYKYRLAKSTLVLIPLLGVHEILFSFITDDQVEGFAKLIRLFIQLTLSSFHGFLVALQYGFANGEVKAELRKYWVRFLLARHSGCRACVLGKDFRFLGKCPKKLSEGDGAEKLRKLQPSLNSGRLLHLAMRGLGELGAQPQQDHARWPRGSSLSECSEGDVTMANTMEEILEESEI

[11] = target: T1, MC4r (human recombinant, CHO cells); assay: displacement of 125I-NDP-αMSH, CHO cells expressing human MC4r; affinity as a multiple of αMSH's
Description: as §1

[12] = target: T4, MC3r (human recombinant, CHO cells); assay: displacement of 125I-NDP-αMSH, CHO cells expressing human MC3r; affinity as a multiple of αMSH's
Description: as §1

[13] = target: T2, MC1r (murine B16-F1 cells); assay: displacement of 125I-NDP-αMSH, murine B16-F1 cells expressing MC1r
Description: as §1

[14] = target: T4, MC3r (human recombinant, CHO cells); assay: displacement of 125I-NDP-αMSH, human recombinant CHO cells expressing MC3r
Description: as §1

[15] = target: T1, MC4r (human recombinant, CHO cells); assay: cell-based or functional assay; remark: listed apart in the source
[16] = target: T2, MC1r (murine B16-F1 cells); assay: cell-based or functional assay; remark: listed apart in the source
[17] = target: T3, MC5r (human recombinant, CHO cells); assay: cell-based or functional assay; remark: listed apart in the source
[18] = target: T4, MC3r (human recombinant, CHO cells); assay: cell-based or functional assay
[19] = target: T1, MC4r (human recombinant, CHO cells); assay: displacement of 125I-NDP-αMSH, human recombinant CHO cells expressing MC4r
Description: as §1

[20] = target: T3, MC5r (human recombinant, CHO cells); assay: displacement of 125I-NDP-αMSH, CHO cells expressing human MC5r; affinity as a multiple of αMSH's
Description: as §1

[21] = target: T3, MC5r (human recombinant, CHO cells); assay: displacement of 125I-NDP-αMSH, human recombinant CHO cells expressing MC5r
Description: as §1

[22] = target: T2, MC1r (murine B16-F1 cells); assay: displacement of 125I-NDP-αMSH, murine B16-F1 cells expressing MC1r; affinity as a multiple of αMSH's
Description: as §1

[23] = target: T6, recombinant human type 2 Formyl peptide receptor (FPR2) (human, UniProt P25090 1-351); assay: cell-based or functional assay
T6 sequence (looked up): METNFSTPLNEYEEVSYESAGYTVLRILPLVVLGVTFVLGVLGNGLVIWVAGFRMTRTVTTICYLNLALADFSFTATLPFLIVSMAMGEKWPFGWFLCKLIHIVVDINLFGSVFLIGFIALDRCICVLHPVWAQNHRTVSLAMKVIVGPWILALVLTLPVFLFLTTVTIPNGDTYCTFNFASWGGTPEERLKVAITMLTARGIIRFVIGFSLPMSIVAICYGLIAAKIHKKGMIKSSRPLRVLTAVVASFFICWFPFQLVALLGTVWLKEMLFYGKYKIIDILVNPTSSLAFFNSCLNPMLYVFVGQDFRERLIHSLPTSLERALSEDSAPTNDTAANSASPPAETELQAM

T4 sequence (P41968 whole entry): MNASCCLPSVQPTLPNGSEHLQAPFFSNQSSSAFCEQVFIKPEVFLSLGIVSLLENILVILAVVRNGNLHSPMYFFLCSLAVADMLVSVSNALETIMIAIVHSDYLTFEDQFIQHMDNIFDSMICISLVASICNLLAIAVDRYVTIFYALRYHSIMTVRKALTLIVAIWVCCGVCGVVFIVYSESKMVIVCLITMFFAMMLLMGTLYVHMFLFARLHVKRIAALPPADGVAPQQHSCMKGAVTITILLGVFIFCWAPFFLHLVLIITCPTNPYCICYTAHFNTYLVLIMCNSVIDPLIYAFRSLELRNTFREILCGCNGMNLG
T1 sequence (P32245 whole entry): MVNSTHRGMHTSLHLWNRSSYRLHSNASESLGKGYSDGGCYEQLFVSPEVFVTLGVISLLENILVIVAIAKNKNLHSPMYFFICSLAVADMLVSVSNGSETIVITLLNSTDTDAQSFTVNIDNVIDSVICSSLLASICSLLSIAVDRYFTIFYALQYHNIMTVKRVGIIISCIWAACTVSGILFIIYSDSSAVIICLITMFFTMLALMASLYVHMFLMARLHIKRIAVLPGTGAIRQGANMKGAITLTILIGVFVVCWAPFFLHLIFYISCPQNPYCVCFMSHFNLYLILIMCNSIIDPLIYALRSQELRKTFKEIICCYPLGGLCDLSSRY
T2 sequence (Q01727 whole entry): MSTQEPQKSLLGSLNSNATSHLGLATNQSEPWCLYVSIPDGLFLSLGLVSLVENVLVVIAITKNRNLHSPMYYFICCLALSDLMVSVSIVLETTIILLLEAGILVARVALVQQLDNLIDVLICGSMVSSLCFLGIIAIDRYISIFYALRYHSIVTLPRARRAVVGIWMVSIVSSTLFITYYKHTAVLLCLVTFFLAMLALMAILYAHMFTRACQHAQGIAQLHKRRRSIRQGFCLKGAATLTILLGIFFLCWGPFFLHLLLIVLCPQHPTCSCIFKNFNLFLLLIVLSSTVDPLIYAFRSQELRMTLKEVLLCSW
T3 sequence (P33032 whole entry): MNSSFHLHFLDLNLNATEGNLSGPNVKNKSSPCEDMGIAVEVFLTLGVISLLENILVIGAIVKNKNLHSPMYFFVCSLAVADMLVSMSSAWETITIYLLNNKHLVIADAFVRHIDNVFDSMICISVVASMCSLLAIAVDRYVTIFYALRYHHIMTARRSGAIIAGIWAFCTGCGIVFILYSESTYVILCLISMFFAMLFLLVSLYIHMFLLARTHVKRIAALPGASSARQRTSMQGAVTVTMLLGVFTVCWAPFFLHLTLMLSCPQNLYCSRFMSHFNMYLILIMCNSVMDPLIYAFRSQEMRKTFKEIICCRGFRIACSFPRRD

B2: Analogue 6 (Example 3): Ac-(Ac-Lys-Lys)Lys-Tyr-Val-Nle-Gly-His-Phe-Arg-Trp-Asp-Arg-Phe-Gly-NH2 (peptide)
peptide: KYVXGHFRWDRFG
modifications: alpha-amino group of Lys1 acetylated; Ac-Lys-Lys attached to the epsilon-amino group of Lys1; Nle at position 4 (written X); C-terminal amide
notes: BAP-modified γ-MSH analogue; X = norleucine
MCr binding affinity relative to αMSH [8]: 4.6 fold
MCr binding affinity relative to αMSH [9]: 2.9 fold

B4: Analogue 5 (Example 3): Ac-(Ac-Lys-Lys)Lys-Tyr-Val-Nle-Gly-His-Phe-Arg-DTrp-Asp-Arg-Phe-Gly-NH2 (peptide)
peptide: KYVXGHFRWDRFG
modifications: alpha-amino group of Lys1 acetylated; Ac-Lys-Lys attached to the epsilon-amino group of Lys1; Nle at position 4 (written X); D-Trp at position 9; C-terminal amide
notes: as for B2
MCr binding affinity relative to αMSH [10]: 1.9 fold
MCr binding affinity relative to αMSH [8]: 38 fold
MCr binding affinity relative to αMSH [9]: 2.8 fold

B5: Analogue 7 (Example 3): Ac-(Ac-Lys-Lys)Lys-Tyr-Val-Nle-Gly-His-DPhe-Arg-Trp-Asp-Arg-Phe-Gly-NH2 (peptide)
peptide: KYVXGHFRWDRFG
modifications: alpha-amino group of Lys1 acetylated; Ac-Lys-Lys attached to the epsilon-amino group of Lys1; Nle at position 4 (written X); D-Phe at position 7; C-terminal amide
notes: as for B2
MCr binding affinity relative to αMSH [8]: 46 fold
MCr binding affinity relative to αMSH [9]: 37 fold

B6: Analogue 2 (Example 2): Ac-(Ac-Lys-Lys)Lys-Ser-Tyr-Ser-Met-Glu-His-Phe-Arg-Trp-Gly-Lys-Pro-(D-Val)-NH2 (peptide)
peptide: KSYSMEHFRWGKPV
modifications: alpha-amino group of Lys1 acetylated; Ac-Lys-Lys attached to the epsilon-amino group of Lys1; D-Val at position 14; C-terminal amide
notes: BAP-modified α-MSH analogue
MCr binding relative to Control peptide 1 (αMSH) [11]: 8.5 fold
MCr binding relative to Control peptide 1 (αMSH) [12]: 3.3 fold

B8: Analogue 3 (Example 2): Ac-(Ac-Lys-Lys)Lys-Ser-Tyr-Ser-Nle-Glu-His-DPhe-Arg-Trp-Gly-Lys-Pro-Val-NH2 (peptide)
peptide: KSYSXEHFRWGKPV
modifications: alpha-amino group of Lys1 acetylated; Ac-Lys-Lys attached to the epsilon-amino group of Lys1; Nle at position 5 (written X); D-Phe at position 8; C-terminal amide
notes: BAP-modified α-MSH analogue; X = norleucine
MCr binding relative to Control peptide 1 (αMSH) [11]: 47 fold
MCr binding relative to Control peptide 1 (αMSH) [12]: 41 fold

Binder: Ac-K([Lys-Lys-Ac])SSIISH[dF]RWGKPV-NH2 (BAP-modified α-MSH analogue) [Analogue 4 (Example 2): Ac-(Ac-Lys-Lys)Lys-Ser-Ser-Ile-Ile-Ser-His-DPhe-Arg-Trp-Gly-Lys-Pro-Val-NH2]
MCr binding relative to Control peptide 1 (αMSH) [11]: 53 fold
MCr binding relative to Control peptide 1 (αMSH) [22]: 9.4 fold
MCr binding relative to Control peptide 1 (αMSH) [12]: 42 fold

Now from value to binder:

EC50, cAMP accumulation (agonist activity) [1]: 252 nM
EC50, cAMP accumulation (agonist activity) [2]: 68 nM
EC50, cAMP accumulation (agonist activity) [3]: 555 nM
Ki [4]: 15 nM
Ki [5]: 215 nM
Ki [6]: 150 nM
Ki [7]: 3.8 nM
B1: γ-MSH Analogue 1: Ac-(Ac-Lys-Lys)Lys-Tyr-Val-Met-Gly-His-Phe-Arg-DTrp-Asp-Arg-Phe-Gly-NH2 (peptide)
peptide: KYVMGHFRWDRFG
modifications: alpha-amino group of Lys1 acetylated; Ac-Lys-Lys attached to the epsilon-amino group of Lys1; D-Trp at position 9; C-terminal amide

MCr binding affinity relative to αMSH [10]: 7.3 fold
MCr binding affinity relative to αMSH [8]: 37 fold
MCr binding affinity relative to αMSH [9]: 10.7 fold
B3: Analogue 8 (Example 3): Ac-(Ac-Lys-Lys)Lys-Tyr-Val-Nle-Gly-His-DPhe-Arg-DTrp-Asp-Arg-Phe-Gly-NH2 (peptide)
peptide: KYVXGHFRWDRFG
modifications: alpha-amino group of Lys1 acetylated; Ac-Lys-Lys attached to the epsilon-amino group of Lys1; Nle at position 4 (written X); D-Phe at position 7; D-Trp at position 9; C-terminal amide
notes: as for B2

EC50 (nM), cAMP production (HTRF) (human GLP-2 receptor): 0.36 nM
Binder: H-HADGSFSDEMNTILDNLAARDFINWLIQTKITDR-OH [GLP-2 (1-34) control peptide: …]

Ki [13]: 1.2 nM
Ki [14]: 24 nM
EC50, cAMP accumulation (agonist activity) [15]: 18 nM
EC50, cAMP accumulation (agonist activity) [16]: 8.9 nM
EC50, cAMP accumulation (agonist activity) [17]: 625 nM
EC50, cAMP accumulation (agonist activity) [18]: 53 nM
Ki [19]: 26 nM
MCr binding relative to Control peptide 1 (αMSH) [20]: 2 fold
Ki [21]: 193 nM
MCr binding relative to Control peptide 1 (αMSH) [22]: 4 fold
B7: α-MSH Analogue 1: Ac-(Ac-Lys-Lys)Lys-Ser-Tyr-Ser-Met-Glu-His-Phe-Arg-Trp-Gly-Lys-Pro-Val-NH2 (peptide)
peptide: KSYSMEHFRWGKPV
modifications: alpha-amino group of Lys1 acetylated; Ac-Lys-Lys attached to the epsilon-amino group of Lys1 (branched amino acid probe Ac-(Ac-Lys-Lys)Lys-); C-terminal amide

EC50, agonist activity (aequorin light emission) [23]: 1560 nM
Binder: Ac-AMVSEFLK(Ac‑(Lys-Ac)Lys‑Lys)QAW-NH2
